Assay results from US20240279357A1 (THERINI BIO, published 2024).
Changes are numbered by the printed parent chain.

B1: humanized VH5/Vκ2 antibody (antibody, IgG1, V domains shown)
VH: QVQLVQSGAEVKKPGSSVKVSCKASGYTFTSYWIHWVRQAPGQGLEWIGLIDPSDSYTNYNQKFRGRVTITRDTSTSTAYMELSSLRSEDTAVYYCASSDPTGCWGQGTTVTVSS
VL: DIVMTQAAFSNPVTPGTPASISCRSSKSLLHSSGITYLSWYLQKPGQSPQLLIYQMSNLASGVPDRFSSSGSGTDFTLKISRVEAEDVGVYYCAQNLELPLTFGQGTKLEIK
notes: IgG1; also called VH5/VK2; VH5Vk2
B2: humanized VH4/Vκ2 antibody (antibody, IgG1, V domains shown)
VH: B1 VH with R72V
VL: B1 VL
notes: IgG1; also called VH4/VK2; VH4Vk2
B3: humanized VH6/Vκ2 antibody (antibody, IgG1, V domains shown)
VH: B1 VH with R65Q
VL: B1 VL
notes: Expressed as IgG1; also called VH6/VK2; VH6Vk2
B4: humanized VH4/Vκ1 antibody (antibody, IgG1, V domains shown)
VH: B1 VH with R72V
VL: B1 VL with V13I, K79R
notes: Expressed as IgG1; also called VH4/VK1; VH4Vk1

Target: T1, P2 peptide comprising SEQ ID NO: 31 (human fibrin γ377-395) (human)
T1 construct: Bought (CPC Scientific 920712); also called human P2 peptide
T1 peptide: YSMKKTTMKIIPFNRLTIG
Assay: SPR (Biacore) single cycle, steady state fit; IgG from HEK supernatant captured, P2 peptide analyte
Procedure: FIG. 18 illustrates the procedure used for the single cycle kinetics analysis. The Biacore T200 […] instrument was used for single cycle kinetics analysis with the control software v2.0.1, and evaluation software V3.0. The anti-human capture chip was used with a running buffer consisting of HBS-P+ buffer (pH 7.4) containing 0.1% BSA at 25° C. a flow rate of 30 μl/min. Neat HEK supernatants were used as ligand and loaded to ˜1674 RU at 10 μl/min. P2 peptide comprising SEQ ID NO: 31 (CPC Scientific 920712, Lot #CS-02-00350) was the analyte for the analysis. […] Regeneration was performed with MgCl₂. Antibodies were diluted in running buffer to a final concentration of 20 μg/ml, based on concentrations assessed by Octet titre. At the start of each cycle, antibodies were loaded onto Fc2, Fc3 and Fc4 of the anti-human capture chip (GE Healthcare, Little Chalfont, UK). IgGs were captured at a flow rate of 10 μl/min to give an immobilization level (RL) of ˜ 1674 RU, the theoretical value to obtain an RMax of ˜50 RU. The surface was then allowed to stabilize. Single cycle kinetic data was obtained with P2 peptide as the analyte at a flow rate of 30 μl/min to minimize any potential mass transport limitations. […] The signal from the reference channel Fc1 (no antibody) was subtracted from that of Fc2, Fc3 and Fc4 to correct for differences in non-specific binding to a reference surface. […] The association phase for the five injections of increasing concentrations of P2 peptide was monitored for 20 seconds each time and a single dissociation phase was measured for 25 seconds following the last injection analyte. Regeneration of the anti-human capture surface was conducted using one injection of 3.8 M magnesium chloride.

Q: With B1 as the binder, how does the Kd read?
A: 130 µM

Q: And the “Relative KD” value?
A: 1.47 fold against VH0/VK0

Q: With B2 as the binder, how does the Kd read?
A: 84.5 µM

Q: And the “Relative KD” value?
A: 0.8 fold against VH0/VK0

Q: What does the source list for B3?
A: Kd: 124 µM; Relative KD: 1.4 fold against VH0/VK0

Q: Which results are given for B4?
A: Kd: 105 µM; Relative KD: 1.18 fold against VH0/VK0
